Data reported in publication PMC4628070, “Independent Mechanisms Target SMCHD1 to Trimethylated Histone H3 Lysine 9-Modified Chromatin and the Inactive X Chromosome” (Molecular and Cellular Biology, 2015).
Values belong to the molecule of their own block, whether it stands above or below them.

Assays:
[1] = target: Full-length FLAG-tagged recombinant SMCHD1 (mouse) (UniProt Q6P5D8); assay: negative-stain electron microscopy; purified FLAG-rSMCHD1, 100 ng/ml, 0.75% uranyl formate, 80 kV
[2] = target: the molecule itself; assay: SEC; affinity-purified wild-type and mutant hinge domains on a Superdex 75 10/300 column, 0.5-ml fractions, A280 and Coomassie-stained SDS-PAGE

stoichiometry N [1]: 2
Molecule: Full-length FLAG-tagged recombinant SMCHD1, Q6P5D8 1-2007

B1: SMCHD1 hinge domain, recombinant wild type (residues 1616 to 1963) (domain or fragment, mouse, UniProt Q6P5D8 1616-1963, looked up)
chain: NDVKKQQQMAALTKEKDELSKSITMYRSLFDANKQLVDEMKCQAEEAKLKETQLRNELKAYNIDIPATQQTTHIEALLEKKITEQNELKKRPRRLCTLPNYTKRSGDILGKIAHLAQIEDDRAAMVISWHLASDMDCVVTLTTDAARAIYDETQGRQQVLPLDSIYRKTLPDWKRPLPHFRNGKLHFKPFGNPVFARDLLTFPDNIEHCETVFGMLLGDTIILDNLDAANHYRKEVVKITHCPTLLTRDGDRIRSNGKFGGLQNKAPPMDKLRGMVFGAPVPKQCVVLGKQIDLIQQYRTALYRLSSVNEDLDNQLQYLHTPDMKKKKQELDEQEKSLKRIEQKLGMT
notes: SMCHD1 SMC hinge domain, mouse, residues 1616 to 1963; Cloned into pET28a; also called wild-type HD; WT hinge; source: E. coli BL21-RosettaBlue, purified (Talon resin)
stoichiometry N [2]: 2
